Assay results taken from the supplement of paper PMC9170038.

Tested on: MS2 coat protein
Test: apparent KD of MS2 coat protein; higher = weaker reporter binding
Conditions: Eterna round: R107; input ligand: theophylline 20 uM
How it was run: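 Designed RNA switches were transcribed on-chip from Illumina sequencing clusters. SNAP-549-labelled MS2 coat protein was titrated onto them in twofold steps from 0.7 or 1.5 nM to 3 µM in 100 mM Tris-HCl pH 7.5, 80 mM KCl, 4 mM MgCl2, either without or with constant ligand. Apparent KD reflects the per-design median of normalised cluster binding-curve fits.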

Compared with “AUGUCAUUGGUGCAGCUGUUAAAUGGCGAUACCAGCGUGGAAACACGCCCUUGGCAGCGCCAAAACAUGAGGAUCACCCAUGUUA [Zlin]”, “UUGUGUUUAUUGGUUUAGCUAUUAUGGUUGCGAGGACCGGUACGGCCGCCACUCGAUGGAACAUGAGGAUCACCCAUGUGAGGAA [JR_ExcTryptoA_Sub013]” is 1.7-fold lower in “apparent KD of MS2 coat protein” value: 54.6 nM for the first, 31.8 nM for the second.

Compared with “UGACAUGAGGAUCACCCAUGUGUAAGAGAAGGAGCGGCCGGAAGGCCAGGUAGGUCGCUCAGGUAGCGUGAGGAUCACCCGUGUG [big_hook]”, “AGUUAAAUAUGUUAAUAACUAUUUACUGAAGGAGCGUGUUUUUACACAGGUAGGUCGCAGUGACAUGAGGAUCACCCAUGUAGUA [JR_SSArginiA_Sub012]” is 2.6-fold lower in “apparent KD of MS2 coat protein” value: 130 nM for the first, 49.7 nM for the second.

Going from “UAACAUGAGGAUCACCCAUGUUUAGAUGAACGAGGACCGGUACGGCCGCCACUCGAUAAGUGGAAAGAGCGAGGGAUUGUAUGCU [Same State Trp A GF4]” to “UUGGGUUUGUGAAGGAGCGGGAAUGUUUUAUAGUGGAUCCUAACAUGAGGAUCACCCAUGUCCCAGGUAGGUCGCGCGGGUUUGG [12.S]”, the “apparent KD of MS2 coat protein” value rises from 16.2 nM to 100 nM (6.2-fold).

Compared with “CGCCGCGCGGGAAGGAGCGCGAUUACAUAACAUGAGGAUCACCCAUGUAAGAAAUUAUUCAUGCAGGUAGGUCGCCCGCGCGGCG [Same State Arginine B GF 5]”, “AGAUUCGACACGGCCGCCACUCUACACGGAUUUCCGAGUGUCGAACAUGAGGAUCACCCAUGUGGGAGGACCGGGUGUUGAGUCU [XTryp B #11]” is 25-fold higher in “apparent KD of MS2 coat protein” value: 28.4 nM for the first, 704 nM for the second.

“AUAUGAAAGAGUGAUACCAGACUACAUGAGGAUCACCCAUGUGACAUUUAAAUAUCAUUUGUCCCUUGGCAGCACAUUAAGUACA [JR_Nu_ExcTheophyB_Sub021]” and “ACAUGAGGAUCACCCAUGUAUCAACGGGAAGGAGCGCCAAACAAGGCAGGUAGGUCGCCCACAUGAGGAUCACCCGUGUGUUGGG [Exclusion Arginine A GF 30]” are within 1.5-fold of each other in “apparent KD of MS2 coat protein” value: 46.9 nM for the first, 58.5 nM for the second.

Going from “AAUAACAUGAGGAUCACCCAUGUAAAAGAUACCAGAGUGAUGAUCCUCCCUUGGCAGCUUAACGCUGAUUGGAAACAAUCAGCGA [Mat - Same State Theophlline A - Mod of Eli - D1]” to “GGGCCCGGGCCCGCGCGGGCCCGGGCCCAACGAGGACCGGUACGGCCGCCACUCGAACGAGUGGGUACAUGAGGAUCACCCAUGU [Baa]”, the “apparent KD of MS2 coat protein” value falls from 268 nM to 55.9 nM (4.8-fold).

Going from “AUAUUACAUGUUAUUAUACGGUAUACUGAUACCAGUGUUUCUAUUCACCCUUGGCAGCAGCAACAUGAGGAUCACCCAUGUAUUA [JR_SSTheophyA_Sub018]” to “AGAGUCUAGUCGGCCGCCACUCAUGUCCAAUGGACAUGAGGAUCACCCAUGUACCGAAGGUACAUGAGGACCGGGACUGGACUCA [Omei Tryp B SS C v6]”, the “apparent KD of MS2 coat protein” value rises from 19 nM to 496 nM (26-fold).

Going from “AACGCGGUGAUGGUAGCCGGACGCUAGGUACGAGGACCGGUACGGCCGCCACUCGGAGUCCUACGACAUGAGGAUCACCCAUGUA [Same State Trp A GF15]” to “AGAUUCGACACGGCCGCCACUUUCAGUGGCUGGUCACAUGGUGCACAUGAGGAUCACCCAUGUGGAAGGACCGGGUGUUGAGUCU [XTryp B #25]”, the “apparent KD of MS2 coat protein” value falls from 140 nM to 45.2 nM (3.1-fold).

Going from “AUCUCGUUCAAUAUACCGCCUUGACUAGAUACCAGCAUGGACCCAUGCCCUUGGCAGCUGGACAUGAGGAUCACCCAUGUUUCAG [SSTheo A #27]” to “GCCAUCGGCGGAAGCCGAUGGGAUACAGAAGGAGCGUAGGAAACUACAGGUAGGUCGCUGGACAUGAGGAUCACCCAUGUGAUAG [SSAA #11]”, the “apparent KD of MS2 coat protein” value rises from 14.8 nM to 31.9 nM (2.2-fold).

For “UGUAUGUGAUCUGAUACCAGACGUGUAAACCUGAGGAUCACCCUGGUAAGGCGAAAGCCAGUCCCUUGGCAGCAGAUCGCAUACU”, the “apparent KD of MS2 coat protein” value was 40 nM.

Same assay, conditions: Eterna round: R107; input ligand: theophylline 2 mM

“AAAUACAUGAGGAUCACCCAUGUCAAUAAUCGAGGACCGGUACGGCCGCCACUCGAUCGGCCAAGAAAAUGAAAGAUGAUCUCUA [theeternabot_sameState_MS2_Trp_A_8]” and “UUUAAUUUAAUAGAUACCAGCUAAUAAUAAUCCCGGAGGACAUGAGGAUCACCCAUGUGGAGCCCUUGGCAGCUAAAAUAAAUUU [Exclusion - Theophylline B]” are within 1.5-fold of each other in “apparent KD of MS2 coat protein” value: 27.4 nM for the first, 22.4 nM for the second.

Going from “UGAUCCUACAGAGAUACCAGUGCCGCUGAGUGACCAGACACAUGAGGAUCACCCAUGUAACACCCUUGGCAGCUCAACUAGAGGG [Same State Theophylline B GF19]” to “AGCACUGUGACGGCCGCCACUACAUAAAUUGGGUGGUCAGGUUCAUUACAUGAGGAUCACCCAUGUAGGACCGGGUCUCAGUGCA [Omei Trp Exc B A v8]”, the “apparent KD of MS2 coat protein” value falls from 98.7 nM to 13.3 nM (7.4-fold).

“GGAUUCAACUCGGCCGCCACUGGUGAUCCUAAUGUACAUGAGGAUCACCCAUGUACAUGAGAAUACAGGACCGGGAGAUAAGCAA [Tryptophan B V2 (+4A)]” and “UGUAUGUGAUCUGAUACCAGUCCAACUGGUAAAGCAUGAGGAUCACCCAUGCAAAAUUGGGACCCUUGGCAGCAGAUCGCAUACU” are within 1.5-fold of each other in “apparent KD of MS2 coat protein” value: 24 nM for the first, 28.1 nM for the second.

“GGCACAUAGUCGGCCGCCACUAGGGUGUAGUGGAAUAACAUGAGGAUCACCCAUGUAUUUGGGACUAGGACCGGGACUAUGUGCC [Leopard]” and “UACUUGCUGACGGCCGCCACUAGAACAUGAGGAUCACCCAUGUAUUCUAGUCGUCAUGGGUGGACUAGGACCGGGUCAGCAAGAU [(Trp1)-(Ms2)-(T)'-(M)'-(Trp2)_Design8]” are within 1.5-fold of each other in “apparent KD of MS2 coat protein” value: 30 nM for the first, 34.7 nM for the second.

“AGAGAGGCGCAUGAUACCAGCUUGGCCUAACAUGAGGAUCACCCAUGUCAAUGGGCCUUAAGCCCUUGGCAGCAUAGGGUGUCCU [Xeestixexe]” and “GGAUGGAACUCGGCCGCCACUGGUGAUCCUAAUGUACAUGAGGAUCACCCAUGUACAUGAGAAGAUAGGACCGGGAGAUAACAUG [V5]” are within 1.5-fold of each other in “apparent KD of MS2 coat protein” value: 25.9 nM for the first, 29.4 nM for the second.

“AUGUUGGUCUGAAGGAGCGCGAUAACAUGAGGAUCACCCAUGUUAAAUGGUACAUGAUACUCGCAGGUAGGUCGCAGUACGACAA [Same State Arginine B GF 13]” and “UUGUGUUUAUUGGUUUAGCUAUUAUGGUUGCGAGGACCGGUACGGCCGCCACUCGAUGGAACAUGAGGAUCACCCAUGUGAGGAA [JR_ExcTryptoA_Sub013]” are within 1.5-fold of each other in “apparent KD of MS2 coat protein” value: 32.2 nM for the first, 33.9 nM for the second.

Compared with “UGACAUGAGGAUCACCCAUGUGUAAGAGAAGGAGCGGCCGGAAGGCCAGGUAGGUCGCUCAGGUAGCGUGAGGAUCACCCGUGUG [big_hook]”, “AGUUAAAUAUGUUAAUAACUAUUUACUGAAGGAGCGUGUUUUUACACAGGUAGGUCGCAGUGACAUGAGGAUCACCCAUGUAGUA [JR_SSArginiA_Sub012]” is 2.2-fold lower in “apparent KD of MS2 coat protein” value: 97.5 nM for the first, 43.5 nM for the second.

Going from “UAACAUGAGGAUCACCCAUGUUUAGAUGAACGAGGACCGGUACGGCCGCCACUCGAUAAGUGGAAAGAGCGAGGGAUUGUAUGCU [Same State Trp A GF4]” to “UUGGGUUUGUGAAGGAGCGGGAAUGUUUUAUAGUGGAUCCUAACAUGAGGAUCACCCAUGUCCCAGGUAGGUCGCGCGGGUUUGG [12.S]”, the “apparent KD of MS2 coat protein” value rises from 10.3 nM to 79.9 nM (7.8-fold).

Compared with “CGCCGCGCGGGAAGGAGCGCGAUUACAUAACAUGAGGAUCACCCAUGUAAGAAAUUAUUCAUGCAGGUAGGUCGCCCGCGCGGCG [Same State Arginine B GF 5]”, “AGAUUCGACACGGCCGCCACUCUACACGGAUUUCCGAGUGUCGAACAUGAGGAUCACCCAUGUGGGAGGACCGGGUGUUGAGUCU [XTryp B #11]” is 41-fold higher in “apparent KD of MS2 coat protein” value: 22.8 nM for the first, 944 nM for the second.
